Reference: patent US20170218389A1, “METHODS AND COMPOSITIONS FOR STOMATA REGULATION, PLANT IMMUNITY, AND DROUGHT TOLERANCE” (priority 2016, published 2017)

Legend:
[1] = test system: stomata of Arabidopsis epidermal peels; assay: Stomatal aperture in epidermal peels of Col-0 and AtGCN4 overexpressor lines; assay type: cell-based; settings: coronatine treatment
Experimental: A representative histogram is depicted of stomatal aperture in Arabidopsis plant epidermal peels from wild-type Col-0 and GCN4-overexpressing (AtGCN4-OE6 and AtGCN4-OE16) lines measured 4 hours after treatment with MES buffer, COR, ABA, or COR+ABA.
Upon detection of PAMPs, stomata rapidly closes to prevent entry of the pathogen into apoplast (Melotto et al., 2006; Lee et al., 2013). […] Epidermal peels of AtGCN4 overexpressing lines were used to investigate whether stomata reopen after treatment with MES buffer (stomata opening buffer; control) or the host pathogen P. syringae pv. tomato DC3000. In wild-type Col-0, stomata reopened 3 hpi, while in the AtGCN4 overexpressor lines (AtGCN4-OE6 and AtGCN4-OE16), stomata remained closed even 4 hpi with P. syringae pv. tomato DC3000. Stomatal aperture was measured after ABA and coronatine treatments in order to investigate stomatal function in AtGCN4 overexpressor lines. ABA treatment induces stomatal closure in plants. After ABA treatment, the stomatal aperture size was reduced due to closing in both wild-type Col-0 and the AtGCN4 overexpressor lines.

[2] = target: T1, Jasmonate-Zim-Domain Protein 9 (JAZ9, At1g70700), full-length, Q8W4J8
T1 chain: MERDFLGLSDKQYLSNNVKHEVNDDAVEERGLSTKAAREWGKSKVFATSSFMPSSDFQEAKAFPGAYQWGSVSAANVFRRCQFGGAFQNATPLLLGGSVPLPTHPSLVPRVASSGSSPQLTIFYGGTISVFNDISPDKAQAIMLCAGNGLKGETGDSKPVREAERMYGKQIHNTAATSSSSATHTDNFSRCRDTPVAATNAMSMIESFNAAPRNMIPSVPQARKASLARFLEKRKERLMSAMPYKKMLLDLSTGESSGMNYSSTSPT

[3] = target: T2, AtGCN4 (Arabidopsis thaliana GCN4, general control non-repressible 4, At3G54540) (Arabidopsis thaliana, UniProt Q9M1H3 1-723); assay: title of Example 19 (yeast two-hybrid, BiFC)
T2 construct: Yeast two-hybrid fusion; in BiFC the C-terminal half of YFP was fused to the N-terminus of AtGCN4 (c-YFP-AtGCN4); also called c-YFP-AtGCN4
T2 sequence: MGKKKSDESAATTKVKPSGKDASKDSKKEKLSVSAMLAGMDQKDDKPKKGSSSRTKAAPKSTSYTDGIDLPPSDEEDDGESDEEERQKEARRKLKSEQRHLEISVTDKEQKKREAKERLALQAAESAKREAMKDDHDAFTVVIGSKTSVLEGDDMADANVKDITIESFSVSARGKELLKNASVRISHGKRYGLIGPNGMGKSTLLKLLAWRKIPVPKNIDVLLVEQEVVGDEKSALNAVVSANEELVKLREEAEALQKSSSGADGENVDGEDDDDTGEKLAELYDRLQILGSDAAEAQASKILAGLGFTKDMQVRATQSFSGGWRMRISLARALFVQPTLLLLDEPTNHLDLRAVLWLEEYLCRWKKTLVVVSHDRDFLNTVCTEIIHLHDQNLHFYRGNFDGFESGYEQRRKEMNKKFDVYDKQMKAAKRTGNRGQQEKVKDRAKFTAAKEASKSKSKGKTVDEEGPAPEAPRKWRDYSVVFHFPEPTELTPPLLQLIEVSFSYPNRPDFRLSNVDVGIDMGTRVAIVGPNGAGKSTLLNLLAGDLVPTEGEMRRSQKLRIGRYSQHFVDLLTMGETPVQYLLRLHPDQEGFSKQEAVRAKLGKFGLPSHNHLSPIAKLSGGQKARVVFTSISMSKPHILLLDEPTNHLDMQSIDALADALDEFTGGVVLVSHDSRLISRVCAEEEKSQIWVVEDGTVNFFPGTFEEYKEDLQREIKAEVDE
Text: Stable transgenic lines were developed expressing GFP fused to the C-terminal end of AtGCN4 and driven under its native promoter. AtGCN4-GFP localized in guard cells, plasma membrane, and cytoplasm. Without being limited by theory, as AtGCN4 localized in the plasma membrane and guard cells, and plays role in the stomatal function, the present inventors reasoned that AtGCN4 interacts with other proteins responsible for stomatal function, such as SLAC1 and RIN4. SLAC1 closes stomata on ABA signaling (Vahisalu et al., 2008) and RIN4 activates a plasma membrane H⁺-ATPase and opens stomata (Liu et al., 2009). A yeast two-hybrid system between GCN4:SLAC1 and GCN4:RIN4 was used to investigate potential protein-protein interactions. AtGCN4 interacted with SLAC1 and RIN4. A BiFC assay (Hu et al., 2002) was used to verify these interactions in planta. AtGCN4 was co-transformed in yeast with either SLAC1 or RIN4 to observe protein-protein interaction using a yeast two-hybrid system. […] Protein-protein interactions were observed as yellow fluorescence with an equivalent bright field image. […] Protein-protein interactions were observed as yellow fluorescence while the plasma membrane was visualized as red fluorescence. […]

`CC[C@H]1C=C(C(=O)N[C@@]2(C(=O)O)C[C@@H]2CC)[C@H]2CCC(=O)[C@H]2C1` [coronatine] was tested, and the Stomatal aperture size ([1]; Col-0 plants) was “increased aperture size” and the Stomatal aperture size ([1]; GCN4 overexpressor lines) was “did not increase”.

B1: His-tagged NHR1A protein expressed in E. coli (full-length recombinant AtNHR1A, N-terminal His-tagged fusion protein) (protein)
chain: MTIVSTCCPFGLSNVTKCINFVQIKEAKTMVKYNFKKITVVPNGKQFVDIVLSRTQRQTPTVVHKGDRICKLRSFYMRKVKFTESNFNEKLSAIIDEFPRLKEIQPFYEDLLHVLYNKDHYKLALGQVNTAKNKISKIAMDYVKLLKHGDSLYRCKCLKVAALGRMCTVMKGIGPSLAYLEQVRQHIARLPSIDPNTRTLLICGCPNVGKSSFMNKVTRADVAVQPYAFTTKSLFLGHTDYKCLRYQVIDTPGLLDREIEDRNIIELCSITALAHIRAAVLFFLDISGSCGYTIAQQASLFHNIKSVFKNKPLVIVCNKTDLMPMENLSEEDRKLIEEMKDEAMKTEMGASEEAVILEMSTLTEEGVMSRLLDQRVAAKMKSKKIGDHLNRFHVAMPKSRDDQERLPCIPQVAGEKEKRKTEKDLEDENGGAGVYSASLKKNYILAKEEWKDDIIPEICDCHNVADFVDSDILNRLEELTSEESLRKAEEEEVGFEIEGEELTEKEKNDLAAIRKKKALLIEESRLKKSNAQNRAAVPRKFDKDKKFTRKRMGRELSSLGLDPSSALNRARSKSRGRKRERYDDLSNDAMDVDVNDDEQHKKKKMCLRSKSRSLSRSRSVSRPPHEVVPGEGFKDSSQKIKAIKIGHKSHRKRDKAARRGEADRVIPSLKPKHLFSGKRGNGKNQRR
For B1, the “rate of GTP hydrolysis” value [2] was “in the presence of JAZ9, the rate of GTP hydrolysis significantly decreased”.

B2: SLAC1 (Slow Anion Channel-Associated 1) (other, UniProt Q9LD83 1-556, looked up)
chain: MERKQSNAHSTFADINEVEDEAEQELQQQENNNNKRFSGNRGPNRGKQRPFRGFSRQVSLETGFSVLNRESRERDDKKSLPRSGRSFGGFESGGIINGGDGRKTDFSMFRTKSTLSKQKSLLPSIIRERDIENSLRTEDGETKDDSINENVSAGRYFAALRGPELDEVKDNEDILLPKEEQWPFLLRFPIGCFGICLGLSSQAVLWLALAKSPATNFLHITPLINLVVWLFSLVVLVSVSFTYILKCIFYFEAVKREYFHPVRVNFFFAPWVVCMFLAISVPPMFSPNRKYLHPAIWCVFMGPYFFLELKIYGQWLSGGKRRLCKVANPSSHLSVVGNFVGAILASKVGWDEVAKFLWAVGFAHYLVVFVTLYQRLPTSEALPKELHPVYSMFIAAPSAASIAWNTIYGQFDGCSRTCFFIALFLYISLVARINFFTGFKFSVAWWSYTFPMTTASVATIKYAEAVPGYPSRALALTLSFISTAMVCVLFVSTLLHAFVWQTLFPNDLAIAITKRKLTREKKPFKRAYDLKRWTKQALAKKISAEKDFEAEEESHH
notes: Yeast two-hybrid fusion; in BiFC the N-terminal half of YFP was fused to the C-terminus of SLAC1 (SLAC1-nYFP); also called SLAC1-nYFP
B2: binds [3].

B3: RIN4 (Rpm1 Interaction Protein 4) (other, UniProt Q8GYN5 1-211, looked up)
chain: MARSNVPKFGNWEAEENVPYTAYFDKARKTRAPGSKIMNPNDPEYNSDSQSQAPPHPPSSRTKPEQVDTVRRSREHMRSREESELKQFGDAGGSSNEAANKRQGRASQNNSYDNKSPLHKNSYDGTGKSRPKPTNLRADESPEKVTVVPKFGDWDENNPSSADGYTHIFNKVREERSSGANVSGSSRTPTHQSSRNPNNTSSCCCFGFGGK
notes: Yeast two-hybrid fusion; in BiFC the N-terminal half of YFP was fused to the C-terminus of RIN4 (RIN4-nYFP); also called RIN4-nYFP
B3: binds [3].
